Data on 13 molecules can be found in patent publication US20230287120A1 (ALLOGENE THERAPEUTICS, published 2023).

Residue numbers refer to the chain shown, from its start.

The chains are these.
T1: Flag tagged recombinant DLL3 (Adipogen) (Homo sapiens (Human), UniProt Q9NYJ7 27-492)
T1 construct: Bought reagent; also called Flag-DLL3
T1 sequence: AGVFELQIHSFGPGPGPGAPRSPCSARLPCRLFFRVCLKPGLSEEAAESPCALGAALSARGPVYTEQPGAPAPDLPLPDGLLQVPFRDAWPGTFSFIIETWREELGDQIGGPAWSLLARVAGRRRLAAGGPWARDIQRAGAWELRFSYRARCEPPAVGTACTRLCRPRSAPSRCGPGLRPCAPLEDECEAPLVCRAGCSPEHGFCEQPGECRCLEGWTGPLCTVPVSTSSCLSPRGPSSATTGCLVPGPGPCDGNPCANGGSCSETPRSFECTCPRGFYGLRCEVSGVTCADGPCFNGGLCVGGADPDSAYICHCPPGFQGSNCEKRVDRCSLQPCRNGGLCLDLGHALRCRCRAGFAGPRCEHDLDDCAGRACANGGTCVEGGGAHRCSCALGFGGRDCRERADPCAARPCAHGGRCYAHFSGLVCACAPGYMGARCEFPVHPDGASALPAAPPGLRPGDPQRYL

T2: full length human DLL3 with N-terminal HA tag, expressed on CHO cells (human, UniProt Q9NYJ7 27-618)
T2 construct: also called Human DLL3 complete ECD
T2 sequence: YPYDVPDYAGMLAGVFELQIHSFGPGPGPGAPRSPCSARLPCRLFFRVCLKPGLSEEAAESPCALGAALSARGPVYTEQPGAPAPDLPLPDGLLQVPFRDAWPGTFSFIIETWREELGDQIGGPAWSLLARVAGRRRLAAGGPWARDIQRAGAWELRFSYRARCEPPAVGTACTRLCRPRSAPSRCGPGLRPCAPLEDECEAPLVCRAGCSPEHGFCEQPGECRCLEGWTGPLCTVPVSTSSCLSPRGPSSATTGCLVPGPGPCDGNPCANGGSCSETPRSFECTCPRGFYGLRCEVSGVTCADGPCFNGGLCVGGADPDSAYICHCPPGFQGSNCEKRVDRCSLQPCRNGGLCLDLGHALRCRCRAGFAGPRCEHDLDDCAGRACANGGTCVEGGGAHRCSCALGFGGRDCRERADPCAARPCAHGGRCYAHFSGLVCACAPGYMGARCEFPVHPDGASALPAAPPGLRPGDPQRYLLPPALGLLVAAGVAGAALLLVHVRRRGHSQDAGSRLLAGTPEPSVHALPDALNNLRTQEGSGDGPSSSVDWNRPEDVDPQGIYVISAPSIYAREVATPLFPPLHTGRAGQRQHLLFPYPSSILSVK

B1: 6H1 (other)
CAR: QITLRESGPTLVKPTQTLTLTCTFSGFSLSTSGLGVGWIRQPPGEALEWLALIYWNDDKRYSPSLKSRLSITKDTSKNQVVLIMTNMDPVDTATYYCVHRRIAAPGSVYWGQGTLVTVSSGGGGSGGGGSGGGGSGGGGSDIQMTQSPSSVSASVGDRVTITCRASQGISSWLAWYQQKPGKAPKLLISAASSLQSGVPSRFSGSGSGTDFTLTISSLQPEDFATYYCHQANSFPFTFGQGTKLEIKTTTPAPRPPTPAPTIASQPLSLRPEACRPAAGGAVHTRGLDFACDIYIWAPLAGTCGVLLLSLVITKRGRKKLLYIFKQPFMRPVQTTQEEDGCSCRFPEEEEGGCELRVKFSRSADAPAYQQGQNQLYNELNLGRREEYDVLDKRRGRDPEMGGKPRRKNPQEGLYNELQKDKMAEAYSEIGMKGERRRGKGHDGLYQGLSTATKDTYDALHMQALPPR
notes: also called anti-DLL3 CAR with 6H1 scFv, on primary T cells
B2: 3F2 (other)
CAR: QVQLQESGPGLVKPSGTLSLTCAVSGGSISSNNWWSWVRQPPGKGLEWIGDIHHSGSTNYKPSLKSRVTISVDKSKNQFSLNLISVTAADTAVYYCAREAGGYFDYWGQGILVTVSSGGGGSGGGGSGGGGSGGGGSDIQMTQSPSTLSASVGDRVTITCRASQSISSWLAWYQQKPGKAPKLLISKASSLESGVPSRFSGSGSGPEFTLTISSLQPADFATYYCQQYNSYSTFGQGTKLEIKTTTPAPRPPTPAPTIASQPLSLRPEACRPAAGGAVHTRGLDFACDIYIWAPLAGTCGVLLLSLVITKRGRKKLLYIFKQPFMRPVQTTQEEDGCSCRFPEEEEGGCELRVKFSRSADAPAYQQGQNQLYNELNLGRREEYDVLDKRRGRDPEMGGKPRRKNPQEGLYNELQKDKMAEAYSEIGMKGERRRGKGHDGLYQGLSTATKDTYDALHMQALPPR
notes: also called anti-DLL3 CAR with 3F2 scFv, on primary T cells
B3: 3E4 (other)
CAR: QVQLQQWGAGLLKPSETLSLTCAVYGGSFSGYYWSWIRQPPGKGLEWIGEIIHSGSSNYNPSLKSRVSISVDTSKNQFSLKLSSVTAADTAVYYCSRGEYGSGSRFDYWGQGTLVTVSSGGGGSGGGGSGGGGSGGGGSAIQMTQSPSSLSASVGDRVAITCRASQGIRDDLGWYQQKPGKAPKLLIYAASSLQSGVPSRFSGSRSDTDFTLTISSLQPEDFATYYCLQDYDYPLTFGGGTKVEIKTTTPAPRPPTPAPTIASQPLSLRPEACRPAAGGAVHTRGLDFACDIYIWAPLAGTCGVLLLSLVITKRGRKKLLYIFKQPFMRPVQTTQEEDGCSCRFPEEEEGGCELRVKFSRSADAPAYQQGQNQLYNELNLGRREEYDVLDKRRGRDPEMGGKPRRKNPQEGLYNELQKDKMAEAYSEIGMKGERRRGKGHDGLYQGLSTATKDTYDALHMQALPPR
notes: also called anti-DLL3 CAR with 3E4 scFv, on primary T cells
B4: 4G9 (other)
CAR: B3 CAR with I52T, S57T, S96A, I160L, R205G
notes: also called anti-DLL3 CAR with 4G9 scFv, on primary T cells
B5: 2G1 (other)
CAR: QLQLQESGPGLVKPSETLSLTCTVSGGSISSSSYYWGWIRQPPGKGLEWIGSIYYSGNIYHNPSLKSRVSISVDTSKNQFSLRLSSVTAADTAVYYCAREIIVGATHFDYWGQGTLVTVSSGGGGSGGGGSGGGGSGGGGSAIQMTQSPSSLSASVGDRVTITCRASQGIRNDLGWYQQKPGKAPELLIYAASSLQSGVPSRFSGSGSGTDFTLTISSLQPEDFATYYCLQDYNYPLTFGPGTKVDIKTTTPAPRPPTPAPTIASQPLSLRPEACRPAAGGAVHTRGLDFACDIYIWAPLAGTCGVLLLSLVITKRGRKKLLYIFKQPFMRPVQTTQEEDGCSCRFPEEEEGGCELRVKFSRSADAPAYQQGQNQLYNELNLGRREEYDVLDKRRGRDPEMGGKPRRKNPQEGLYNELQKDKMAEAYSEIGMKGERRRGKGHDGLYQGLSTATKDTYDALHMQALPPR
notes: also called anti-DLL3 CAR with 2G1 scFv, on primary T cells
B6: 11H7 (other)
CAR: QVQLQQWGAGLLKPSETLSLTCAVYGGSFSAYYWNWIRQPPGKGLEWIGEINHSGSTNYNPSLKSRVTISVDTSKNQFSLNLTSLTAADTAVYYCARGLDSSGWYPFDYWGQGTLVTVSSGGGGSGGGGSGGGGSGGGGSDIQMTQSPSSVSASVGDRVTITCRASQGISSWLAWYQQKPGKAPKLLIYAASSLQSGVPSRFSGSGSGTDFTLTISSLQPEDFATYYCQQADSFPFTFGPGTKVDIKTTTPAPRPPTPAPTIASQPLSLRPEACRPAAGGAVHTRGLDFACDIYIWAPLAGTCGVLLLSLVITKRGRKKLLYIFKQPFMRPVQTTQEEDGCSCRFPEEEEGGCELRVKFSRSADAPAYQQGQNQLYNELNLGRREEYDVLDKRRGRDPEMGGKPRRKNPQEGLYNELQKDKMAEAYSEIGMKGERRRGKGHDGLYQGLSTATKDTYDALHMQALPPR
notes: also called anti-DLL3 CAR with 11H7 scFv, on primary T cells
B7: 17A2 (other)
CAR: QVQLQESGPGLVKPSGTLSLTCVVFGDSISSSNWWSWVRQPPGKGLEWIGEVFHSGSTNYNPSLKSRVTISVDKSKNQFSLKLSSVTAADTAVYYCARAAVAGALDYWGQGTLVTVSSGGGGSGGGGSGGGGSGGGGSDIVMTQSPDSLAVSLGERATINCKSSQSVLYSSNNKNYLAWYQQKPGQPPNLLVYWASTRESGVPDRFSGAGSGTDFTLTISSLQAEDVAVYYCQQYYGTSWTFGQGTKVEIKTTTPAPRPPTPAPTIASQPLSLRPEACRPAAGGAVHTRGLDFACDIYIWAPLAGTCGVLLLSLVITKRGRKKLLYIFKQPFMRPVQTTQEEDGCSCRFPEEEEGGCELRVKFSRSADAPAYQQGQNQLYNELNLGRREEYDVLDKRRGRDPEMGGKPRRKNPQEGLYNELQKDKMAEAYSEIGMKGERRRGKGHDGLYQGLSTATKDTYDALHMQALPPR
notes: also called anti-DLL3 CAR with 17A2 scFv, on primary T cells
B8: anti-DLL3 antibody 9H12-K (antibody, V domains shown)
VH: QVQLVQSGAEVKKPGASVKVSCKASGYTFTGYSIHWVRQAPGQGLEWMGWINPNSGGTFYAQKFQGRVTMTRDTSISTVYMELSRLRSDDTAVYYCARDGWGDYYYYGLDVWGQGTTVTVSL
VL: DIQMTQSPSSVSASVGDRVTITCRASQDISSWLAWYQQKPGKAPKLLIYTASSLQGGVPSRFSGSGSGTDFTLTISSLQPEDLATYSCQQANVFPYTFGQGTKLEIK
B9: anti-DLL3 antibody 16H7 (antibody, V domains shown)
VH: QVQLQQWGAGLLKPSETLSLTCAVFGGSFSGDYWSWIRQPPGKGLEWIGEINHSGITSFNPSLKSRVTISVDTSKNQFSLKLSSVTAADTAVYYCARGELGIPDNWGQGTLVTVSS
VL: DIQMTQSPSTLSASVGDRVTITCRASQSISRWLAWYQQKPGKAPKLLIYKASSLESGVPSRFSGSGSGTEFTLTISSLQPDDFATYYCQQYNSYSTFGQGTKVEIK
B10: anti-DLL3 antibody 2C3 (antibody, V domains shown)
VH: B9 VH with A9G, F25Y, F29S, D32N, G44R, I56T, F59Y, P103A, N105S
VL: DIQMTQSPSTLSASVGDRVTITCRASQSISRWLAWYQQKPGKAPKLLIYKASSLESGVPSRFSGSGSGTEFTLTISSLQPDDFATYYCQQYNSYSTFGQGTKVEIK
B11: anti-DLL3 antibody 11H7 (antibody, V domains shown)
VH: QVQLQQWGAGLLKPSETLSLTCAVYGGSFSAYYWNWIRQPPGKGLEWIGEINHSGSTNYNPSLKSRVTISVDTSKNQFSLNLTSLTAADTAVYYCARGLDSSGWYPFDYWGQGTLVTVSS
VL: DIQMTQSPSSVSASVGDRVTITCRASQGISSWLAWYQQKPGKAPKLLIYAASSLQSGVPSRFSGSGSGTDFTLTISSLQPEDFATYYCQQADSFPFTFGPGTKVDIK
B12: anti-DLL3 antibody 4F9 (antibody, V domains shown)
VH: QVQLQQWGAGLLKPSETLSLTCAVYGGSFSGYYWTWIRQPPGKGLEWIGEITHSGSTNYNPSLKSRVSISVDTSKNQFSLKLSSVTAADTAVYYCARGEYGSGSRFDYWGQGTLVTVSS
VL: AIQMTQSPSSLSASVGDRVAITCRASQGIRDDLGWYQQKPGKAPKLLIYAASSLQSGVPSRFSGSGSDTDFTLTISSLQPEDFATYYCLQDYDYPLTFGGGTKVEIK
B13: anti-DLL3 antibody 4G9 (antibody, V domains shown)
VH: B12 VH with T35S
VL: B12 VL with I21L

In the first test the target is T1, Flag tagged recombinant DLL3 (Adipogen). As to the kind of experiment: flow cytometry, percent of T cells that recognise recombinant DLL3, Donor 116. On the technique in general: In flow cytometry, cells or beads pass a laser one at a time.
Description: (§1) To determine the percentage of T cells that were successfully transduced with DLL3 CAR, T cells were first incubated with 1 ug/ml Flag tagged recombinant DLL3 (Adipogen) in PBS+1% BSA for 20 minutes at 4 C.
For B1, the Transduction efficiency worked out at 5.81%.

In the case of B2, the Transduction efficiency was 16.3%.

Turning to B3, the Transduction efficiency was found to be 58.3%.

Consider B4, for which the Transduction efficiency was 48.9%.

For B5, the Transduction efficiency came out at 66.9%.

Turning to B6, the Transduction efficiency worked out at 52.4%.

As for B7, the Transduction efficiency was determined as 68.6%.

Another test shares this target. The experiment in a line: flow cytometry, percent of T cells that recognise recombinant DLL3, Donor 419.
Description: as §1
Regarding B1, the Transduction efficiency worked out at 2.7%.

In the case of B2, the Transduction efficiency stood at 12.2%.

For the molecule B3, the Transduction efficiency is 46.4%.

Regarding B4, the Transduction efficiency worked out at 35.2%.

As to B5, the Transduction efficiency was 49.1%.

As to B6, the Transduction efficiency was determined as 40.2%.

In the case of B7, the Transduction efficiency amounted to 43.3%.

The target of the next test is T2, full length human DLL3 with N-terminal …. As to the kind of experiment: flow cytometry on CHO cells with full length and truncated human DLL3; column Binds to DLL3 Domain.
Description: The samples were analyzed by flow cytometry. […] Signals from the PE channel are shown on the x-axis and counts are shown on the y-axis.
For B8, the binding result is “binds”.

In the case of B9, the binding result is reported as “binds”.

With B10, the binding result is “binds”.

Take B11: the binding result is given as “binds”.

Turning to B12, the binding result was “binds”.

With B13, the binding result is “binds”.

The next test concerns the target T1, Flag tagged recombinant DLL3 (Adipogen). As to the kind of experiment: flow cytometry, primary T cells with the CAR, 1 ug/ml Flag tagged recombinant DLL3, PE anti-Flag.
Description: as §1
Turning to B2, the “Rec-DLL3 gate, percent of live CD3+ cells” value (“Rec-DLL3 gate, percent” below) worked out at 58%.

For B5, the “Rec-DLL3 gate, percent” value was determined as 69.1%.

As to B7, the “Rec-DLL3 gate, percent” value is 59.1%.
